Data as given in patent US20220401557A1 (Chugai, published 2022).
Changes are numbered by the printed parent chain.

B1: ANuPA20/GLS//GCH065 (bispecific antibody, human IgG1, kappa, N297A)
heavy 1: QDGNEEMGGITQTPYKVSISLSGRSDNHGGGSQVQLVESGGGLVQPGRSLRLSCAASGFTFSNAWMHWVRQAPGKGLEWVAQIKDKANGYNAYYAESVKGRFTISRDDSKNSIYLQMNSLKTEDTAVYYCRYVHYTTYAGFSYKFGVDAWGQGTTVTVSSASTKGPSVFPLAPSSKSTSGGTAALGCLVKDYFPEPVTVSWNSGALTSGVHTFPAVLQSSGLYSLSSVVTVPSSSLGTQTYICNVNHKPSNTKVDKKVEPKSCDKTHTCPPCPAPELRGGPKVFLFPPKPKDTLMISRTPEVTCVVVDVSHEDPEVKFNWYVDGVEVHNAKTKPREEQYASTYRVVSVLTVLHQDWLNGKEYKCKVSNKALPAPIEKTISKAKGQPREPQVYTLPPSRKEMTKNQVSLTCLVKGFYPSDIAVEWESNGQPENNYKTTPPYLDSDGSFFLYSKLTVDKSRWQQGNVFSCSVMHEALHNHYTQKSLSLSP
light 1: DIVMTQSPLSLPVTPGEPASISCRSSQSLVHSNRNTYLHWYQQKPGQAPRLLIYKVSNRFSGVPDRFSGSGSGTDFTLKISRVEAEDVGVYYCGQGTQVPYTFGQGTKLEIKRTVAAPSVFIFPPSDEQLKSGTASVVCLLNNFYPREAKVQWKVDNALQSGNSQESVTEQDSKDSTYSLSSTLTLSKADYEKHKVYACEVTHQGLSSPVTKSFNRGEC
heavy 2: QVQLVQSGAEVKKPGASVTVSCKASGYTFTDYEMHWIRQPPGEGLEWIGAIDGPTPDTAYSEKFKGRVTLTADKSTSTAYMELSSLTSEDTAVYYCTRFYSYTYWGQGTLVTVSSASTKGPSVFPLAPSSKSTSGGTAALGCLVKDYFPEPVTVSWNSGALTSGVHTFPAVLQSSGLYSLSSVVTVPSSSLGTQTYICNVNHKPSNTKVDKKVEPKSCDKTHTCPPCPAPELRGGPKVFLFPPKPKDTLMISRTPEVTCVVVDVSHEDPEVKFNWYVDGVEVHNAKTKPREEQYASTYRVVSVLTVLHQDWLNGKEYKCKVSNKALPAPIEKTISKAKGQPREPQVYTLPPSREEMTKNQVSLTCLVKGFYPSDIAVEWESNGQPENNYKTTPPYLDSDGSFFLYSKLTVDKSRWQQGNVFSCSVMHEALHNHYTQESLSLSP
light 2: B1 light 1 with S28P
B2: ANuPA27/GLS//GCH065 (bispecific antibody, human IgG1, kappa, N297A)
heavy 1: QDGNEEMGGITQTPYKVSISGTTVILTLSGRSDNHQVQLVESGGGLVQPGRSLRLSCAASGFTFSNAWMHWVRQAPGKGLEWVAQIKDKANGYNAYYAESVKGRFTISRDDSKNSIYLQMNSLKTEDTAVYYCRYVHYTTYAGFSYKFGVDAWGQGTTVTVSSASTKGPSVFPLAPSSKSTSGGTAALGCLVKDYFPEPVTVSWNSGALTSGVHTFPAVLQSSGLYSLSSVVTVPSSSLGTQTYICNVNHKPSNTKVDKKVEPKSCDKTHTCPPCPAPELRGGPKVFLFPPKPKDTLMISRTPEVTCVVVDVSHEDPEVKFNWYVDGVEVHNAKTKPREEQYASTYRVVSVLTVLHQDWLNGKEYKCKVSNKALPAPIEKTISKAKGQPREPQVYTLPPSRKEMTKNQVSLTCLVKGFYPSDIAVEWESNGQPENNYKTTPPYLDSDGSFFLYSKLTVDKSRWQQGNVFSCSVMHEALHNHYTQKSLSLSP
light 1: B1 light 1
heavy 2: B1 heavy 2
light 2: B1 light 1 with S28P
B3: hCE115HA/GLSGS//GCH065 (bispecific antibody, human IgG1, kappa, N297A)
heavy 1: QVQLVESGGGVVQPGRSLRLSCAASGFTFSNAWMHWVRQAPGKGLEWVAQIKAKSNNYATYYAESVKGRFTISRDDSKNSLYLQMNSLKTEDTAVYYCRYVHYGAYYGVDAWGQGTTVTVSSASTKGPSVFPLAPSSKSTSGGTAALGCLVKDYFPEPVTVSWNSGALTSGVHTFPAVLQSSGLYSLSSVVTVPSSSLGTQTYICNVNHKPSNTKVDKKVEPKSCDKTHTCPPCPAPELRGGPKVFLFPPKPKDTLMISRTPEVTCVVVDVSHEDPEVKFNWYVDGVEVHNAKTKPREEQYASTYRVVSVLTVLHQDWLNGKEYKCKVSNKALPAPIEKTISKAKGQPREPQVYTLPPSRKEMTKNQVSLTCLVKGFYPSDIAVEWESNGQPENNYKTTPPYLDSDGSFFLYSKLTVDKSRWQQGNVFSCSVMHEALHNHYTQKSLSLSP
light 1: QDGNEGGGSGGGSGGGSDIVMTQSPLSLPVTPGEPASISCRSSQSLVHSNRNTYLHWYQQKPGQAPRLLIYKVSNRFSGVPDRFSGSGSGTDFTLKISRVEAEDVGVYYCGQGTQVPYTFGQGTKLEIKRTVAAPSVFIFPPSDEQLKSGTASVVCLLNNFYPREAKVQWKVDNALQSGNSQESVTEQDSKDSTYSLSSTLTLSKADYEKHKVYACEVTHQGLSSPVTKSFNRGEC
heavy 2: B1 heavy 2
light 2: B1 light 1 with S28P
B4: hCE115HA/GLSuPA04//GCH065 (bispecific antibody, human IgG1, kappa, N297A)
heavy 1: B3 heavy 1
light 1: QDGNEEMGGGSGGGSGGGSLSGRSDNHGGGSDIVMTQSPLSLPVTPGEPASISCRSSQSLVHSNRNTYLHWYQQKPGQAPRLLIYKVSNRFSGVPDRFSGSGSGTDFTLKISRVEAEDVGVYYCGQGTQVPYTFGQGTKLEIKRTVAAPSVFIFPPSDEQLKSGTASVVCLLNNFYPREAKVQWKVDNALQSGNSQESVTEQDSKDSTYSLSSTLTLSKADYEKHKVYACEVTHQGLSSPVTKSFNRGEC
heavy 2: B1 heavy 2
light 2: B1 light 1 with S28P
B5: hCE115HAGS/GLS//GCH065 (bispecific antibody, human IgG1, kappa, N297A)
heavy 1: QDGNEGGGSGGGSQVQLVESGGGVVQPGRSLRLSCAASGFTFSNAWMHWVRQAPGKGLEWVAQIKAKSNNYATYYAESVKGRFTISRDDSKNSLYLQMNSLKTEDTAVYYCRYVHYGAYYGVDAWGQGTTVTVSSASTKGPSVFPLAPSSKSTSGGTAALGCLVKDYFPEPVTVSWNSGALTSGVHTFPAVLQSSGLYSLSSVVTVPSSSLGTQTYICNVNHKPSNTKVDKKVEPKSCDKTHTCPPCPAPELRGGPKVFLFPPKPKDTLMISRTPEVTCVVVDVSHEDPEVKFNWYVDGVEVHNAKTKPREEQYASTYRVVSVLTVLHQDWLNGKEYKCKVSNKALPAPIEKTISKAKGQPREPQVYTLPPSRKEMTKNQVSLTCLVKGFYPSDIAVEWESNGQPENNYKTTPPYLDSDGSFFLYSKLTVDKSRWQQGNVFSCSVMHEALHNHYTQKSLSLSP
light 1: B1 light 1
heavy 2: B1 heavy 2
light 2: B1 light 1 with S28P
B6: rCE115/GLSGS//GCH065 (bispecific antibody, human IgG1, kappa, N297A)
heavy 1: EVQLVETGGSLVQPGKSLKLTCATSGFTFSNAWMHWVRQSPEKQLEWVAQIKAKSNNYATYYAESVKGRFTISRDDSKSNIYLQMNSLKEEDTAVYYCRYVHYGAYYGVDAWGQGTSVTVSSASTKGPSVFPLAPSSKSTSGGTAALGCLVKDYFPEPVTVSWNSGALTSGVHTFPAVLQSSGLYSLSSVVTVPSSSLGTQTYICNVNHKPSNTKVDKKVEPKSCDKTHTCPPCPAPELRGGPKVFLFPPKPKDTLMISRTPEVTCVVVDVSHEDPEVKFNWYVDGVEVHNAKTKPREEQYASTYRVVSVLTVLHQDWLNGKEYKCKVSNKALPAPIEKTISKAKGQPREPQVYTLPPSRKEMTKNQVSLTCLVKGFYPSDIAVEWESNGQPENNYKTTPPYLDSDGSFFLYSKLTVDKSRWQQGNVFSCSVMHEALHNHYTQKSLSLSP
light 1: B3 light 1
heavy 2: B1 heavy 2
light 2: B1 light 1 with S28P
B7: hCE115HA/GLSuPA20//GCH065 (bispecific antibody, human IgG1, kappa, N297A)
heavy 1: B3 heavy 1
light 1: QDGNEEMGGITQTPYKVSISLSGRSDNHGGGSDIVMTQSPLSLPVTPGEPASISCRSSQSLVHSNRNTYLHWYQQKPGQAPRLLIYKVSNRFSGVPDRFSGSGSGTDFTLKISRVEAEDVGVYYCGQGTQVPYTFGQGTKLEIKRTVAAPSVFIFPPSDEQLKSGTASVVCLLNNFYPREAKVQWKVDNALQSGNSQESVTEQDSKDSTYSLSSTLTLSKADYEKHKVYACEVTHQGLSSPVTKSFNRGEC
heavy 2: B1 heavy 2
light 2: B1 light 1 with S28P
B8: hCE115HA/GLSuPA27//GCH065 (bispecific antibody, human IgG1, kappa, N297A)
heavy 1: B3 heavy 1
light 1: QDGNEEMGGITQTPYKVSISGTTVILTLSGRSDNHDIVMTQSPLSLPVTPGEPASISCRSSQSLVHSNRNTYLHWYQQKPGQAPRLLIYKVSNRFSGVPDRFSGSGSGTDFTLKISRVEAEDVGVYYCGQGTQVPYTFGQGTKLEIKRTVAAPSVFIFPPSDEQLKSGTASVVCLLNNFYPREAKVQWKVDNALQSGNSQESVTEQDSKDSTYSLSSTLTLSKADYEKHKVYACEVTHQGLSSPVTKSFNRGEC
heavy 2: B1 heavy 2
light 2: B1 light 1 with S28P
B9: rCE115/GLS//GCH065 (bispecific antibody, human IgG1, kappa, N297A)
heavy 1: B6 heavy 1
light 1: B1 light 1
heavy 2: B1 heavy 2
light 2: B1 light 1 with S28P

These binders were tested against CD3 on NFAT-RE-luc2-Jurkat cells (human, UniProt P07766 23-207) (assay: cell-based or functional assay).
Chain of CD3 on NFAT-RE-luc2-Jurkat cells (P07766 23-207): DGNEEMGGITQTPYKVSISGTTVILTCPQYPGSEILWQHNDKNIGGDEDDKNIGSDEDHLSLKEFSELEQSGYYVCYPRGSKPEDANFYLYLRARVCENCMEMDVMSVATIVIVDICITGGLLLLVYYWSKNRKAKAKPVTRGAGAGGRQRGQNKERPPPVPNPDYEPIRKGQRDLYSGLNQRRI

increase rate due to the protease treatment (luciferase, uPA-treated / untreated), antibody 0.1 nM [ratio]	increase rate due to the protease treatment (luciferase, uPA-treated / untreated), antibody 1 nM [ratio]	Binder
1.5	2.2	B1
0.9	0.9	B2
1	0.9	B3
1.1	8.2	B4
1	1	B5
1	0.7	B6
1.6	3	B7
1	2.3	B8
0.7	0.9	B9
